The target of test [1] is T1, endogenous human supervillin splice-form 4 (SV4) (human (endogenous in U2OS)).
T1 construct: also called hSV4; source: endogenous, U2OS lysate
Briefly: immunoblot; cell extracts (HeLa; U2OS with control or SVIL-specific dsRNA; mouse embryonic fibroblasts) on 5-15% SDS gels, nitrocellulose strips probed with hybridoma supernatants diluted 1:500. Particulars: partners not purified. In general terms: Immunoblotting shows a protein as a band on a membrane.

The target in test [2] is T2, h340 linear peptide IENQRRGQELSATRQ (Homo sapiens).
T2 construct: 15-residue peptide of human supervillin h340; numbers count on: hSV1; spot on a peptide microarray; source: printed peptide microarray (PEPperPRINT)
T2 chain: IENQRRGQELSATRQ
Briefly: peptide or protein array; PEPperPRINT microarray of linear 15-residue h340 peptides (overlap 13), hybridoma supernatants diluted 1:10 and 1:1, 16 h at 4 C, anti-mouse IgG DyLight680. Particulars: one partner purified.

In test [3] the target is T3, h340 linear peptide ELSATRQAHDLSPAA (Homo sapiens).
T3 construct: 15-residue peptide of human supervillin h340; numbers count on: hSV1; spot on a peptide microarray; source: printed peptide microarray (PEPperPRINT)
T3 chain: ELSATRQAHDLSPAA
Described as above. Particulars: one partner purified.

For test [4], the target named is T4, human supervillin N-terminus, first 340 amino acids (h340) (Homo sapiens, UniProt O95425-2).
T4 construct: supervillin, human, first 340 amino acids of splice-form 1 (SV1); numbers count on: hSV1 (the ~205-kDa splice-form, not archvillin); also called h340 immunogen; h340 antigen; source: E. coli Rosetta2(DE3)pLysS, purified (glutathione-Sepharose 4B), cleaved from GST-h340 with PreScission Protease
T4 sequence (O95425 other isoform, or with tags, fused parts or gaps): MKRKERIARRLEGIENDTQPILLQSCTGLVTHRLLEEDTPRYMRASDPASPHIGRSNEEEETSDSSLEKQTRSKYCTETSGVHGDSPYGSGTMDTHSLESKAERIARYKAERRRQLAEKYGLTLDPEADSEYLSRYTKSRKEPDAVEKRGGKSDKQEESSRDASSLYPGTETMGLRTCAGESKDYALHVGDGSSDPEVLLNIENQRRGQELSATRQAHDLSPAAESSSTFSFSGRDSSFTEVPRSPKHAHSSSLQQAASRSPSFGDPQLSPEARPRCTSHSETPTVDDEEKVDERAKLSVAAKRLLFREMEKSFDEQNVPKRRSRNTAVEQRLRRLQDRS
Description: BLI; Octet RED96e, 30 C, PBS-T; by the methods antibody coupled to AR2G sensors and h340 at about 2, 4, 8 and 16 nM, by the legend of Fig 3 surface-bound h340 and antibody in solution; 2:1 interaction model, global fit; KD as off-rate/on-rate. Particulars: both partners purified.

Test [5] deals with T5, Flag-tagged human supervillin splice-form 4 (Flag-hSV4) (Homo sapiens, UniProt O95425-4, strain).
T5 construct: source: RH30 cells, transfected, fixed
T5 sequence (O95425 whole entry, looked up, change not shown, canonical isoform): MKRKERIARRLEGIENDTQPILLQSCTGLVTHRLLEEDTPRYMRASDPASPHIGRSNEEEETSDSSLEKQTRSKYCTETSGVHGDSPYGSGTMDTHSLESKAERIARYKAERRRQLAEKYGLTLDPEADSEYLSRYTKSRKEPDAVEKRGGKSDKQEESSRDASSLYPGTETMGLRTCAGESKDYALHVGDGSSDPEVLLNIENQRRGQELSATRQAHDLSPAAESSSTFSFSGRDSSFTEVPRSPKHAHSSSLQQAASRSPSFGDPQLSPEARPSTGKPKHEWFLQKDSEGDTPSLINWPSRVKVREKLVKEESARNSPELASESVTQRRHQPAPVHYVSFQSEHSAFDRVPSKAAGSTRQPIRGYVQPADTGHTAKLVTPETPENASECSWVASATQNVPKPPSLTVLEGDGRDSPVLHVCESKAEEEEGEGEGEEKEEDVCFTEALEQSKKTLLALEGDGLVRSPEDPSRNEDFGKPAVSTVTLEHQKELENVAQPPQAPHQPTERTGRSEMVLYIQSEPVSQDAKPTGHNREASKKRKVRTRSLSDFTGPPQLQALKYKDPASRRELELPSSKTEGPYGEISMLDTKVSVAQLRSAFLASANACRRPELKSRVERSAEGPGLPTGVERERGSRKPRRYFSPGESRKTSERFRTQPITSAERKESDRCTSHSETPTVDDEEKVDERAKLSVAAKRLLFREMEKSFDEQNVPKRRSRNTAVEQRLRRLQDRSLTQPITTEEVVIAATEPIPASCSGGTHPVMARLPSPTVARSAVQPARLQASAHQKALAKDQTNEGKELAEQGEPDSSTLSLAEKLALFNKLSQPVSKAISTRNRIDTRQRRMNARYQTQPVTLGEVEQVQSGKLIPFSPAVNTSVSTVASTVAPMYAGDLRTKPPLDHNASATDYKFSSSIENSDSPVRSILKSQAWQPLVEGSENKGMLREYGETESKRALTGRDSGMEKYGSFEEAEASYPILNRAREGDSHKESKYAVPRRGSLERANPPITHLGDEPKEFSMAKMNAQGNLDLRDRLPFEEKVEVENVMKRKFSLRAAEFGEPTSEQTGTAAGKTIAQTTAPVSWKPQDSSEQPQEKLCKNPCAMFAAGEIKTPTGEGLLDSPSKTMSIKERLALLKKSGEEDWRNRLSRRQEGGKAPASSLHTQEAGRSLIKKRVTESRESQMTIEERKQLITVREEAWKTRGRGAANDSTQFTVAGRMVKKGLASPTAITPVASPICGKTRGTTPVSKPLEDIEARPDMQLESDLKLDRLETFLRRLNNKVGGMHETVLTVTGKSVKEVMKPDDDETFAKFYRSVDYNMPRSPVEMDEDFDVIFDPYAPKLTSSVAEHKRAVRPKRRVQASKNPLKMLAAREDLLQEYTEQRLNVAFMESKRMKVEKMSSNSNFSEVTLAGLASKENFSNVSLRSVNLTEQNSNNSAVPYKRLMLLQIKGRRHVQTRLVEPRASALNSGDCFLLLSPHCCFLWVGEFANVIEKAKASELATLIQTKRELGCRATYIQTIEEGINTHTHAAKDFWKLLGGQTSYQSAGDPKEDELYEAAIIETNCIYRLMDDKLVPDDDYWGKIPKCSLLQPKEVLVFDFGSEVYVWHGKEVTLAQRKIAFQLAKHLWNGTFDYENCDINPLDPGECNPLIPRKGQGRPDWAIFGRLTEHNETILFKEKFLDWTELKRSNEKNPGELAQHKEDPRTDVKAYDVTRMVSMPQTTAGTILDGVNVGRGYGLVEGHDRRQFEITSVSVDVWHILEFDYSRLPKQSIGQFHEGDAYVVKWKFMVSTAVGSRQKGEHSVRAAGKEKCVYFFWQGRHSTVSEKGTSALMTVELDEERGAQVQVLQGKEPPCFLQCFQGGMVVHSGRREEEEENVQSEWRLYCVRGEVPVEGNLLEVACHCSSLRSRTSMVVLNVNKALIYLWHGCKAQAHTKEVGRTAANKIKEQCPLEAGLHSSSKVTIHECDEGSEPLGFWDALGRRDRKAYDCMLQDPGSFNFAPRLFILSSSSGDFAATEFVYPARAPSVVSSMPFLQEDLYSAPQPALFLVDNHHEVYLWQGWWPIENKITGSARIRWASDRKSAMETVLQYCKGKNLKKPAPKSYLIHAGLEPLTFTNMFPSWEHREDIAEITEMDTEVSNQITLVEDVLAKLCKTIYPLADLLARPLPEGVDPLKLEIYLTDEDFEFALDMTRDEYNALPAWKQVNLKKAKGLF
Description: immunostaining of cells or tissue; immunofluorescence, cells fixed with 4% PFA (in CSK buffer, CSK-PFA), Triton X-100; purified antibody 100 ug/ml; overexpressed tagged supervillins in RH30 cells, or endogenous supervillin in U2OS cells on fibronectin. Particulars: one partner purified.

Test [6] concerns the target T6, EGFP-tagged human supervillin splice-form 4 (EGFP-hSV4) (Homo sapiens, UniProt O95425-4, strain).
T6 construct: source: RH30 cells, transfected, fixed
Briefly: immunostaining of cells or tissue; immunofluorescence, cells fixed with cold methanol; purified antibody 100 ug/ml; overexpressed tagged supervillins in RH30 cells. Particulars: one partner purified.

Numbering of substitutions follows the chain as printed.

T6 sequence (O95425 whole entry, looked up, change not shown, canonical isoform): as above

B1: murine monoclonal antibody clone 2G3 (hybridoma supernatant) (antibody, V domains shown)
VH: QIQLQQSGPELVKPGASVKISCKASAYTFTDYYINWVKQRPGQGLEWIGWIYPGSGNTKYNEKFKGKATLTVDTSSSTAYMQLSSLTSEDSAVYFCATGPFGGFAYWGQGTLVTVSA
VL: DIVMTQAAPSVPVTPGESVSISCRSSKSLLHSNGNTYLYWFLQRPGQSPQLLIYRMSNLASGVPDRFSGSGSGTAFALRISRVEAEDVGVYYCMQHLEYPLTFDAGTRLELK
notes: HC variable region of clone 2G3, partial CDS; mouse IgG1 heavy chain constant region (isotype IgG1 by isotyping kit); LC variable region of clone 2G3, partial CDS; mouse light chain constant region; mouse IgG1; Group 1; source: mouse hybridoma supernatant (Precision Antibody, Inc.)
Consider B1, for which the binding result in test [1], in test [2] and in test [3] was “binds” throughout.

B2: chimeric (rabbit Fc) monoclonal antibody 1E2 (CPTC-SVIL-1) (antibody, V domains shown)
VH: B1 VH with E10D, A26G, Y60F, K63R, G66D, T98S, Y106H
VL: B1 VL with H31Y, A77T, R79K, D104G, R108K
notes: HC variable region of clone 1E2 (as the heavy chain variable region of m4), partial CDS; LC variable region of clone 1E2 (as the light chain variable region of m4), partial CDS; mouse variable regions on rabbit IgG and rabbit kappa constant regions; Group 1; also called Rb 1E2; chimeric rabbit 1E2; source: HEK293, transient production, purified (protein A)
Usually Kd stands for the concentration at which binding is half-saturated. Read a high Kd as weaker binding. In general, koff refers to a measure of how fast the partners let go of each other. Usually kon stands for a measure of how fast the partners come together. Consider B2, for which, in test [4], the Kd came out at 4.21 nM, the dissociation rate constant (koff) was 0.000496 s⁻¹ and the kon turned out to be 118000 M⁻¹ s⁻¹. In addition, in test [5], the binding result is “binds”.

B3: chimeric (rabbit Fc) monoclonal antibody 4A8 (CPTC-SVIL-2) (antibody, V domains shown)
VH: EVQLQQSGAELVRPGASVKLSCTASGFNIKDDHMHWVKQRPEQGLEWIGWIDPENGDTEYASKFQDKATITADTSSNTAYLQFSSLTSEDTAVYYCTTGEFDNWGQGTTLTVSS
VL: B1 VL with V11I, E17Q, G73A, A77T, L101F, T102S, D104G, R108K
notes: HC variable region of clone 4A8 (as the heavy chain variable region of m7), partial CDS; LC variable region of clone 4A8 (as the light chain variable region of m7), partial CDS; mouse variable regions on rabbit IgG and rabbit kappa constant regions; Group 2; also called Rb 4A8; chimeric rabbit 4A8; source: HEK293, transient production, purified (protein A)
Consider B3, for which the binding result in test [6] is “binds”. For the same molecule, in test [4], binding was characterised by a dissociation constant (Kd) of 0.73 nM, the off-rate (koff) was 0.000296 s⁻¹ and the association rate constant (kon) amounted to 407000 M⁻¹ s⁻¹.
